T1: PcrV (aa136-257).6xhis (Pseudomonas aeruginosa)
T1 chain: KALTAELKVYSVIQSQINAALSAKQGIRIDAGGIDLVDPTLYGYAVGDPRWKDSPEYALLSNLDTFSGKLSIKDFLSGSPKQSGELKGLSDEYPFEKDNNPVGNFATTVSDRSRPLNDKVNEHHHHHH


Experiments:
[1] = molecular target: T2, full-length PcrV.6xhis (Pseudomonas aeruginosa); test: SPR (Biacore T200), mAb captured via anti-human Fc, PcrV injected, 25 C
T2 construct: Recombinant full-length V-tip protein of the type 3 secretion system, His-tagged; also called full-length PcrV with a C-terminal hexahistidine tag
Description: (§1) The equilibrium dissociation constant (KD) for different PcrV reagents binding to purified anti-PcrV monoclonal antibodies were determined using a real-time surface plasmon resonance based Biacore T200 biosensor. All binding studies were performed in 10 mM HEPES, 150 mM NaCl, 3.4 mM EDTA and 0.05% v/v Tween-20, pH 7.4 (HBS-EP) running buffer at 25° C. and 37° C. […] Proteins were injected over the captured anti-PcrV monoclonal antibody surface for 4 minutes at a flow rate of 50 μL/minute, while the dissociation of monoclonal antibody bound PcrV reagent was monitored for 10 minutes in HBS-EP running buffer.
(§2) Kinetic association (kₐ) and dissociation (kd) rate constants were determined by fitting the real-time sensorgrams to a 1:1 binding model using Scrubber 2.0c curve fitting software. Binding dissociation equilibrium constants (KD) and dissociative half-lives (t½) were calculated from the kinetic rate constants as:

[2] = molecular target: T2, full-length PcrV.6xhis; test: SPR (Biacore T200), mAb captured via anti-human Fc, PcrV injected, 37 C
Description: as §1, §2

[3] = molecular target: T1, PcrV (aa136-257).6xhis; test: as above
Description: as §1, §2

[4] = molecular target: T1, PcrV (aa136-257).6xhis; test: SPR (Biacore T200), mAb captured via anti-human Fc, PcrV injected, 25 C
Description: as §1, §2

[5] = molecular target: T3, PcrV of P. aeruginosa strain 6077 (Pseudomonas aeruginosa strain 6077); test: cell-based or functional assay
[6] = molecular target: T4, PcrV of P. aeruginosa strain ATCC 700888 (Pseudomonas aeruginosa strain ATCC …); test: cell-based or functional assay
[7] = molecular target: PcrV 136-233 (Pseudomonas aeruginosa); test: ELISA, PcrV coated on plate, chemiluminescence
Description: (§3) Anti-PcrV monoclonal antibodies (mAbs) were assessed by ELISA for their ability to bind to recombinant PcrV proteins. […] The following morning, plates were washed three times with wash buffer (Imidazole buffered saline with Tween-20) and blocked for 1.5 hours at 25° C. with 200 μl of blocking buffer (3% BSA in PBS). […] Wells were washed three times and then incubated with 100 ng/ml anti-human HRP secondary antibody per well for one hour at 25° C. 100 μl of SuperSignal™ ELISA Pico Chemiluminescent Substrate was added to each well and signal was detected (Victor X3 plate reader, Perkin Elmer). Luminescence values were analyzed by a four-parameter logistic equation over a 10-point response curve (GraphPad Prism).

[8] = molecular target: T5, recombinant full-length P. aeruginosa PcrV (Pseudomonas aeruginosa); test: ELISA, PcrV coated on plate, chemiluminescence
T5 construct: Coated on ELISA plates; also called Full length PcrV; Full length PerV
Description: as §3

[9] = molecular target: T3, PcrV of P. aeruginosa strain 6077; test: cell-based or functional assay; remark: listed apart in the source
[10] = molecular target: T4, PcrV of P. aeruginosa strain ATCC 700888; test: cell-based or functional assay; remark: listed apart in the source

Binder | 90 nM Ag Bound (RU) [1] [RU] | Kd [1] [nM] | koff [1] [s⁻¹] | kon [1] [M⁻¹ s⁻¹] | t½ [1] [h] | 90 nM Ag Bound (RU) [2] [RU] | Kd [2] [nM] | koff [2] [s⁻¹] | kon [2] [M⁻¹ s⁻¹] | t½ [2] [h] | Kd [3] [nM] | koff [3] [s⁻¹] | kon [3] [M⁻¹ s⁻¹] | t½ [3] [h] | Kd [4] [nM] | koff [4] [s⁻¹] | kon [4] [M⁻¹ s⁻¹] | t½ [4] [h] | Rabbit RBC Hemolysis Assay (IC50) [5] [nM] | Rabbit RBC Hemolysis Assay (IC50) [6] [nM] | further results
REGN3977 (antibody, V domains shown, also called Control III; REGN3977-Control III) VH: QVQLKQSGPGLVQPSQSLSITCTVSGFSLTSYGVHWVRQSPGKGLEWLGVIWSGGDTDYNAAFISRLSISKDNSKSQLFFKMNSLRATDTAIYYCARNRGDIYYDFTYAMDYWGQGTSVTVSS VL: DIQMTQSPASLSASVGETVTITCRASGNIQNYLAWYQQTQGKSPQLLVYSAKTLADGVPSRFSGSGSGTQYSLKINSLQPEDFGSYYCQHFWSTPYTFGGGTKLEIKR | 146 | 2.39 | 0.000495 | 207000 | 0.39 | 136 | 3.48 | 0.000917 | 263000 | 0.21 | 11.4 | 0.00245 | 216000 | 0.0783 | 4.28 | 0.000956 | 223000 | 0.202 | – | – | –
H1H29332P (antibody, V domains shown) VH: EVQLVESGGDLVQPGGSLRLSCKASGFTFSTFAMNWVRQAPGRGLEWVSAIGASGYSTYYVDSMKGRFTISRDNSKNTLYLQMNSLGAEDTAVYYCAKEYSVSSNYYYGMDVWGQGTTVTVSS VL: DIQMTQSPSSLSASVGDRVTITCRASQTIRRYLNWYQQKAGKAPKLLIYAASSLLSGVPSRFSASGSGTDFTLTISSLQPEDFSTYYCQQTYSIPITFGQGTRLEIKR | 152 | 0.0548 | 1.3e-05 | 237000 | 14.8 | 163 | 0.092 | 2.68e-05 | 293000 | 7.19 | 0.595 | 0.000106 | 178000 | 1.82 | 0.285 | 3.83e-05 | 133000 | 5.03 | 15.3 | 4.06 | EC50 [7]: 0.814 nM; EC50 [8]: 2.12 nM; A549 Cytotoxicity Assay (IC50) [9]: 6.47 nM; A549 Cytotoxicity Assay (IC50) [10]: 32.9 nM
REGN3514 (antibody, V domains shown, also called Control I; Control I-REGN3514) VH: EMQLLESGGGLVQPGGSLRLSCAASGFTFSSYAMNWVRQAPGEGLEWVSAITISGITAYYTDSVKGRFTISRDNSKNTLYLQMNSLRAGDTAVYYCAKEEFLPGTHYYYGMDVWGQGTTVTVSS VL: AIQMTQSPSSLSASVGDRVTITCRASQGIRNDLGWYQQKPGKAPKLVIYSASTLQSGVPSRFSGSGSGTDFTLSISSLQPDDFATYYCLQDYNYPWTFGQGTKVEIKR | 169 | 0.146 | 3.9e-05 | 267000 | 4.94 | 141 | 0.453 | 0.000196 | 431000 | 0.985 | 2.42 | 0.000596 | 246000 | 0.323 | 0.83 | 0.000122 | 147000 | 1.58 | 2.44 | 1.01 | EC50 [7]: 7.59 nM; EC50 [8]: 0.696 nM; A549 Cytotoxicity Assay (IC50) [9]: 0.807 nM; A549 Cytotoxicity Assay (IC50) [10]: 17.8 nM
H1H29336P (antibody, V domains shown) VH: EVQLVESGGGLVQPGGSLRLSCAASGFTFSSYAMTWVRQAPGKGLEWVSSIRGSGYSSDYADSVKGRFTISRDNSENTVYLQMNRLRAEDTAVYYCAKERSVTAYYYYGMDVWGQGTTVTVSS VL: DIQLTQSPSFLSASVGDRVTITCWASQDISSFLTWYQQKPGIAPKLLIYTASTLQSGVPSRFSGSGSGTEFTLTISSLQPEDFATYYCQQLKSYPLTFGGGTKVEIKR | 102 | ≤ 0.0204 | ≤ 1e-05 | 490000 | ≥ 19.2 | 80.7 | ≤ 0.0116 | ≤ 1e-05 | 860000 | ≥ 19.2 | 0.0809 | 4.36e-05 | 544000 | 4.41 | 0.0408 | 1.48e-05 | 367000 | 13.1 | 0.205 | 0.81 | EC50 [7]: 1.03 nM; EC50 [8]: 2.28 nM; A549 Cytotoxicity Assay (IC50) [9]: 0.84 nM; A549 Cytotoxicity Assay (IC50) [10]: 6.37 nM
H1H29339P (antibody, V domains shown) VH: EVQLVESGGDLVQPGGSLRLSCAASGFTFNTYAMNWVRQAPGKGLEWVAVIGGSGYSTNYADSVKGRFTISRDNSKNTLYLQMNSLRTEDTAVYYCAKEGNIVALYWYFDLWGRGTLVTVSS VL: DIQMTQSPSSLSASVGDRVTITCRASQSISRYLNWYQQKPGKAPKLLIYAASSLQGGVPSKFSGSGSGTDFTLTISSLQPEDFATYYCQQSSTTPLTFGGGTKVEIKR | 140 | ≤ 0.0274 | ≤ 1e-05 | 365000 | ≥ 19.2 | 130 | 0.0197 | ≤ 1e-05 | 508000 | ≥ 19.2 | 0.186 | 8.15e-05 | 435000 | 2.36 | 0.0955 | 2.76e-05 | 293000 | 6.97 | 2.3 | 5.59 | EC50 [7]: 0.856 nM; EC50 [8]: 1.96 nM; A549 Cytotoxicity Assay (IC50) [9]: 0.0333 nM; A549 Cytotoxicity Assay (IC50) [10]: 7.82 nM
H1H29329P (antibody, V domains shown) VH: EVQLVESGGGLVQPGGSLRLSCAASGFTFSDHEMNWVRQAPGKGLEWISYIGSGVVTMYYADSVRGRFTISRDNAKKTLYLQMNSLRAEDTAVYYCARDRGYYFGSEAFHYWGQGTLVTVSS VL: DIQMTQSPSTLSASVGDRVTITCRASQSISNWLAWYQQKPGKAPKLLIYKSSSLESGVPSRFSGSGSGTEFTLTISSLQPDDFATYYCQQYKSYSLTFGGGTKVEIKR | 81 | 5.16 | 0.00095 | 184000 | 0.203 | 59.6 | 9.12 | 0.00505 | 554000 | 0.0383 | 107 | 0.011 | 103000 | 0.0167 | 15 | 0.0023 | 153000 | 0.0833 | 56.4 | 2.39 | EC50 [7]: 7.44 nM; EC50 [8]: 0.597 nM; A549 Cytotoxicity Assay (IC50) [9]: 10.8 nM; A549 Cytotoxicity Assay (IC50) [10]: 54.3 nM

— patent publication US20260184768A1 (Regeneron, published 2026)
